The values that follow come from US10139419B2, “Methods for detecting Aβ oligomers” (SYSTEM OF SYSTEMS ANALYTICS, INC., priority 2014, dated 2018).

Bridge positions count the residues as written; N and C are the ends. Square brackets hold non-standard residues; d marks the D form. Ends that are not written are not given here. * marks the point of attachment. FITC = O=C1OC2(c3ccc(O)cc3Oc3cc(O)ccc32)c2ccc(NC(=S)*)cc21; Ahx = NCCCCCC(=O)O

Assay [1] deals with T1, Aβ42 oligomer (Homo sapiens, UniProt P05067). In words: Streptavidin bead binding assay with gel electrophoresis detection. The conditions noted are these: column 4. The procedure: An assay is performed to analyze peptide probe binding to Aβ42 oligomer. The peptide probe is the same as the probe in EXAMPLE 8. Five samples are analyzed: (1) Aβ42 biotinylated oligomer as a positive control; (2) Aβ42 biotinylated oligomer bound to a bead via streptavidin; (3) peptide positive control; (4) peptide probe bound to Aβ42 biotinylated oligomer bound to a bead via streptavidin; and (5) peptide probe bound to a bead via streptavidin. Detection was by gel electrophoresis.

The target in assay [2] is T1, Aβ42 oligomer. Description: Fluorescent anisotropy versus Aβ42 oligomer concentration. It is filed as binding.
The next assay deals with T2, synthetic Aβ oligomer (Homo sapiens, UniProt P05067).
T2 construct: The monomers can comprise one or more of Aβ3-42, Aβ37, Aβ38, Aβ39, Aβ40 and Aβ42; host or cells: synthetic peptide oligomer
Description: Fluorescence detection assay of synthetic Aβ oligomer spiked into human CSF. In kind it is binding. The conditions noted are these: 10 mM HEPES pH 7.0; 0.005% NP-40; 10% normal human cerebrospinal fluid; 70 nM pyrenated peptide; 37° C. The protocol:
Samples of CSF from a normal human subject are spiked with different concentrations of synthetic Aβ oligomer, and subjected to fluorescence detection assay using peptide probe AD315 (SEQ ID NO:65). The detection is performed in an assay with the following conditions: 10 mM HEPES buffer at pH 7.0; 0.005% NP-40; 10% normal human cerebrospinal fluid; 70 nM pyrenated peptide; and 37° C. incubation.

Assay [3] deals with T3, Aβ oligomer (Homo sapiens, UniProt P05067). In words: Peptide Linked Immunosorbent Assay (PLISA) compared with ELISA. In kind it is binding. The conditions noted are these: ELISA with Aβ antibody 6E10 labeled with horse radish peroxidase. The text has this: FIG. 7 depicts different formats for a PLISA as described herein. PLISA (A) depicts a sandwich format in which a target oligomer, such as an Aβ oligomer (SDS Oligo), binds to both surface-bound peptide probe (peptide) and peptide probe tagged with a label (Tag). The complex is detected using a labeled antibody (Anti-TagAb-label). PLISA (B) depicts a sandwich format in which the peptide probe tagged with a label is replaced by a labeled antibody (Ab-label) specific to the Aβ oligomer. PLISA (C) depicts a sandwich format in which the surface-bound peptide probe is replaced with an antibody specific to the Aβ oligomer (Ab-6E10). PLISA (D) depicts a competitive format in which Aβ oligomer in a biological sample competes with surface-bound Aβ oligomer for a labeled peptide probe. Each of PLISA (A)-(D) can use a solid-phase format (shown here as a bead, in which the bead is passed through an apparatus for detecting the labels).
Different concentrations of Aβ oligomer in solution are subjected to both PLISA and ELISA to determine the sensitivity of each assay, as measured by dose response curves. For the PLISA assay, the peptide probe used is AD317 (SEQ ID NO:41). For the ELSIA, the antibody used is Aβ antibody 6E10 labeled with horse radish peroxidase. […]
For orientation: An ELISA detects its analyte on a solid surface through an enzyme-linked reagent.

Assay [4] has as its target T3, Aβ oligomer. In words: PLISA using PEP-11 peptide probes on Aβ monomer, oligomer and fiber. In kind it is binding. The text has this: PEP-11ds is also represented by SEQ ID NO:64, but has a disulfide bridge at the two cysteines.

T3 sequence (P05067 672-713 limits assumed): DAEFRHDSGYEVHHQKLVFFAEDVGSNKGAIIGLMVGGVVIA
T1 sequence (P05067 672-713 limits assumed): as above
T2 sequence (P05067 672-713 limits assumed): as above

“AD315: Salt bridge at G29H and G33E; PBA and NH2 additions; pyrenated peptide (KLVFFAEDVGSNKHAIIELMK-NH2; not fully specified (N-terminus); also: PBA addition, pyrene label)”: the “binding of peptide probe to bead-bound Aβ42 biotinylated oligomer” value with Aβ42 oligomer [1] is listed as “can be used to detect Aβ42 oligomer”. Further, the “fluorescent anisotropy (milli-r) as a function of Aβ42 oligomer concentration (nN)” value with Aβ42 oligomer [2] is recorded as “decreases as oligomer concentration increases”. Also, in the assay with synthetic Aβ oligomer, the “fluorescence response to synthetic Aβ oligomer concentration” value was “linear, dose-dependent curve”.
Consider “AD317: P22, biotin labeled with thrombin site linker, at C-terminus (KLVFFAEDVGSNKHAIIELMKGLVPRGSGK; not fully specified (residue 30, C-terminus); also: biotin label at C-terminus via thrombin site linker, attachment place not given here)”, for which, in the assay with Aβ oligomer [3], the “sensitivity for detecting Aβ oligomer, PLISA vs ELISA (dose response curves)” value was “more sensitive assay for detecting Aβ oligomer than the ELISA”.
On to “Pep11-a: consists of SEQ ID NO:64, at a purity of 86% (standard) ({FITC}-[Ahx]CLVFFAEDVGSNKGAIIGLMC[dR][dR]; not fully specified; cysteine pairing not given here)”, for which the “preferential detection/binding of Aβ oligomer as compared to Aβ monomer or fiber” value in the assay with Aβ oligomer [4] is “preferentially detect Aβ oligomer”.
Same read-out and setting: to “Pep11-b: consists of SEQ ID NO:64, at a purity of 95% (high) ({FITC}-[Ahx]CLVFFAEDVGSNKGAIIGLMC[dR][dR]; not fully specified; cysteine pairing not given here)” belongs “preferentially detect Aβ oligomer”; to “Pep11-ds: represented by SEQ ID NO:64, but has a disulfide bridge at the two cysteines ({FITC}-[Ahx]CLVFFAEDVGSNKGAIIGLMC[dR][dR]; disulfide 2-22; not fully specified)”, “preferentially detect Aβ oligomer”.
